According to the Human Domainome abundance scans (Beltran et al. 2025):
± gives the uncertainty stated by the source.

Experiment: abundance fitness (aPCA) (normalised: wild type 0, dead -1); higher = more abundant; growth selection in yeast, the domain comes from the species named
Conditions: Homo sapiens

| Substance | abundance fitness |
| --- | --- |
| NEDD4-like E3 ubiquitin-protein ligase WWP2 P488L, O00308 | -0.063 ± 0.038 |
| NEDD4-like E3 ubiquitin-protein ligase WWP2 A445K, O00308 | -0.01 ± 0.074 |
| NEDD4-like E3 ubiquitin-protein ligase WWP2 G486P, O00308 | 0.013 ± 0.049 |
| NEDD4-like E3 ubiquitin-protein ligase WWP2 Q442W, O00308 | -0.122 ± 0.072 |
| NEDD4-like E3 ubiquitin-protein ligase WWP2 V459F, O00308 | -0.387 ± 0.094 |
| NEDD4-like E3 ubiquitin-protein ligase WWP2 T471A, O00308 | -0.725 ± 0.064 |
| NEDD4-like E3 ubiquitin-protein ligase WWP2 M452C, O00308 | 0.009 ± 0.055 |
| NEDD4-like E3 ubiquitin-protein ligase WWP2 S487C, O00308 | -0.032 ± 0.04 |
| NEDD4-like E3 ubiquitin-protein ligase WWP2 G478K, O00308 | 0.061 ± 0.067 |
| NEDD4-like E3 ubiquitin-protein ligase WWP2 K473E, O00308 | -0.059 ± 0.035 |
| NEDD4-like E3 ubiquitin-protein ligase WWP2 R468Q, O00308 | -0.111 ± 0.066 |
| NEDD4-like E3 ubiquitin-protein ligase WWP2 D492T, O00308 | -0.085 ± 0.073 |
| NEDD4-like E3 ubiquitin-protein ligase WWP2 P475W, O00308 | -0.829 ± 0.067 |
| NEDD4-like E3 ubiquitin-protein ligase WWP2 P448D, O00308 | 0.09 ± 0.059 |
| NEDD4-like E3 ubiquitin-protein ligase WWP2 Y454R, O00308 | -0.029 ± 0.033 |
| NEDD4-like E3 ubiquitin-protein ligase WWP2 R460V, O00308 | -0.137 ± 0.044 |
| NEDD4-like E3 ubiquitin-protein ligase WWP2 R476S, O00308 | -0.271 ± 0.052 |
| NEDD4-like E3 ubiquitin-protein ligase WWP2 T483E, O00308 | -0.032 ± 0.057 |
| NEDD4-like E3 ubiquitin-protein ligase WWP2 E443A, O00308 | -0.065 ± 0.032 |
| NEDD4-like E3 ubiquitin-protein ligase WWP2 E443V, O00308 | -0.087 ± 0.036 |
| NEDD4-like E3 ubiquitin-protein ligase WWP2 M452L, O00308 | -0.108 ± 0.042 |
| NEDD4-like E3 ubiquitin-protein ligase WWP2 M452D, O00308 | -0.12 ± 0.056 |
| NEDD4-like E3 ubiquitin-protein ligase WWP2 D492L, O00308 | -0.149 ± 0.061 |

| Substance | abundance fitness |
| --- | --- |
| NEDD4-like E3 ubiquitin-protein ligase WWP2 P447Q, O00308 | -0.289 ± 0.07 |
| NEDD4-like E3 ubiquitin-protein ligase WWP2 V459L, O00308 | -0.073 ± 0.04 |
| NEDD4-like E3 ubiquitin-protein ligase WWP2 E480M, O00308 | -0.058 ± 0.048 |
| NEDD4-like E3 ubiquitin-protein ligase WWP2 A490Y, O00308 | -0.09 ± 0.061 |
| NEDD4-like E3 ubiquitin-protein ligase WWP2 G482C, O00308 | -0.15 ± 0.062 |
| NEDD4-like E3 ubiquitin-protein ligase WWP2 G482P, O00308 | -0.032 ± 0.07 |
| NEDD4-like E3 ubiquitin-protein ligase WWP2 K484E, O00308 | -0.037 ± 0.061 |
| NEDD4-like E3 ubiquitin-protein ligase WWP2 G458S, O00308 | -0.176 ± 0.055 |
| NEDD4-like E3 ubiquitin-protein ligase WWP2 S456M, O00308 | -0.06 ± 0.065 |
| NEDD4-like E3 ubiquitin-protein ligase WWP2 D464Y, O00308 | -0.693 ± 0.12 |
| NEDD4-like E3 ubiquitin-protein ligase WWP2 Q485C, O00308 | -0.071 ± 0.053 |
| NEDD4-like E3 ubiquitin-protein ligase WWP2 Q485E, O00308 | -0.034 ± 0.046 |
| NEDD4-like E3 ubiquitin-protein ligase WWP2 F472W, O00308 | -0.129 ± 0.05 |
| NEDD4-like E3 ubiquitin-protein ligase WWP2 G489K, O00308 | 0.001 ± 0.069 |
| NEDD4-like E3 ubiquitin-protein ligase WWP2 R468E, O00308 | -0.14 ± 0.039 |
| NEDD4-like E3 ubiquitin-protein ligase WWP2 E443L, O00308 | -0.183 ± 0.055 |
| NEDD4-like E3 ubiquitin-protein ligase WWP2 T455R, O00308 | -0.762 ± 0.038 |
| NEDD4-like E3 ubiquitin-protein ligase WWP2 E480H, O00308 | 0.027 ± 0.068 |
| NEDD4-like E3 ubiquitin-protein ligase WWP2 W450L, O00308 | -0.421 ± 0.048 |
| NEDD4-like E3 ubiquitin-protein ligase WWP2 W450E, O00308 | -0.492 ± 0.042 |
| NEDD4-like E3 ubiquitin-protein ligase WWP2 G478T, O00308 | 0.077 ± 0.059 |
| NEDD4-like E3 ubiquitin-protein ligase WWP2 F479G, O00308 | 0.017 ± 0.04 |
| NEDD4-like E3 ubiquitin-protein ligase WWP2 N466H, O00308 | -0.169 ± 0.075 |

| Substance | abundance fitness |
| --- | --- |
| NEDD4-like E3 ubiquitin-protein ligase WWP2 Y454V, O00308 | -0.047 ± 0.048 |
| NEDD4-like E3 ubiquitin-protein ligase WWP2 P447I, O00308 | -0.433 ± 0.051 |
| NEDD4-like E3 ubiquitin-protein ligase WWP2 W450N, O00308 | -0.581 ± 0.099 |
| NEDD4-like E3 ubiquitin-protein ligase WWP2 D464E, O00308 | -0.372 ± 0.047 |
| NEDD4-like E3 ubiquitin-protein ligase WWP2 V459P, O00308 | -0.878 ± 0.037 |
| NEDD4-like E3 ubiquitin-protein ligase WWP2 I441F, O00308 | -0.13 ± 0.059 |
| NEDD4-like E3 ubiquitin-protein ligase WWP2 P447E, O00308 | -0.185 ± 0.062 |
| NEDD4-like E3 ubiquitin-protein ligase WWP2 T455K, O00308 | -0.628 ± 0.082 |
| NEDD4-like E3 ubiquitin-protein ligase WWP2 Q442F, O00308 | 0.128 ± 0.059 |
| NEDD4-like E3 ubiquitin-protein ligase WWP2 P488F, O00308 | -0.127 ± 0.064 |
| Transcription factor SOX-11 D92N, P35716 | -0.18 ± 0.054 |
| Transcription factor SOX-11 I62D, P35716 | -0.203 ± 0.065 |
| NEDD4-like E3 ubiquitin-protein ligase WWP2 R460P, O00308 | -0.032 ± 0.06 |
| NEDD4-like E3 ubiquitin-protein ligase WWP2 H465A, O00308 | -0.378 ± 0.05 |
| NEDD4-like E3 ubiquitin-protein ligase WWP2 M452P, O00308 | -0.337 ± 0.054 |
| Transcription factor SOX-11 R82I, P35716 | 0.406 ± 0.048 |
| NEDD4-like E3 ubiquitin-protein ligase WWP2 G458C, O00308 | -0.193 ± 0.051 |
| Transcription factor SOX-11 S93L, P35716 | -0.568 ± 0.099 |
| Transcription factor SOX-11 K108Q, P35716 | -0.031 ± 0.13 |
| NEDD4-like E3 ubiquitin-protein ligase WWP2 S481T, O00308 | 0.029 ± 0.047 |
| NEDD4-like E3 ubiquitin-protein ligase WWP2 K453V, O00308 | -0.063 ± 0.05 |
| NEDD4-like E3 ubiquitin-protein ligase WWP2 G489P, O00308 | -0.049 ± 0.041 |
| NEDD4-like E3 ubiquitin-protein ligase WWP2 Y491C, O00308 | -0.011 ± 0.049 |

| Substance | abundance fitness |
| --- | --- |
| NEDD4-like E3 ubiquitin-protein ligase WWP2 T469F, O00308 | -0.215 ± 0.068 |
| NEDD4-like E3 ubiquitin-protein ligase WWP2 G458K, O00308 | -0.049 ± 0.045 |
| NEDD4-like E3 ubiquitin-protein ligase WWP2 S487L, O00308 | -0.067 ± 0.04 |
| NEDD4-like E3 ubiquitin-protein ligase WWP2 N466W, O00308 | -0.513 ± 0.047 |
| NEDD4-like E3 ubiquitin-protein ligase WWP2 E451Q, O00308 | 0.066 ± 0.07 |
| NEDD4-like E3 ubiquitin-protein ligase WWP2 F462D, O00308 | -0.675 ± 0.084 |
| NEDD4-like E3 ubiquitin-protein ligase WWP2 P475G, O00308 | -1 ± 0.042 |
| NEDD4-like E3 ubiquitin-protein ligase WWP2 E443F, O00308 | -0.287 ± 0.088 |
| NEDD4-like E3 ubiquitin-protein ligase WWP2 E480L, O00308 | -0.072 ± 0.042 |
| NEDD4-like E3 ubiquitin-protein ligase WWP2 M440Q, O00308 | 0.206 ± 0.11 |
| NEDD4-like E3 ubiquitin-protein ligase WWP2 P448Q, O00308 | 0.029 ± 0.054 |
| NEDD4-like E3 ubiquitin-protein ligase WWP2 M440E, O00308 | -0.085 ± 0.11 |
| NEDD4-like E3 ubiquitin-protein ligase WWP2 T469S, O00308 | -0.032 ± 0.041 |
| NEDD4-like E3 ubiquitin-protein ligase WWP2 P447L, O00308 | -0.228 ± 0.048 |
| NEDD4-like E3 ubiquitin-protein ligase WWP2 N466R, O00308 | -0.164 ± 0.043 |
| NEDD4-like E3 ubiquitin-protein ligase WWP2 L446C, O00308 | -0.065 ± 0.054 |
| NEDD4-like E3 ubiquitin-protein ligase WWP2 Q442K, O00308 | 0.195 ± 0.069 |
| NEDD4-like E3 ubiquitin-protein ligase WWP2 T470A, O00308 | -0.265 ± 0.035 |
| NEDD4-like E3 ubiquitin-protein ligase WWP2 G489W, O00308 | -0.163 ± 0.057 |
| NEDD4-like E3 ubiquitin-protein ligase WWP2 G489Q, O00308 | -0.157 ± 0.077 |
| NEDD4-like E3 ubiquitin-protein ligase WWP2 D474V, O00308 | -0.387 ± 0.067 |
